Laboratory results from patent publication US20210269525A1 (BIOCYTOGEN PHARMACEUTICALS BEIJING, published 2021).
Substitutions are numbered along the chain they refer to. One block for each binder: values may come before it.

Key:
[1] = target: T1, human CD3e (T-cell surface glycoprotein CD3 epsilon chain) (human, UniProt P07766 23-207); test: flow cytometry, human PBMC, antibody 0.1 µg/mL, anti-human IgG Fc-Alexa Fluor647 (1:500), anti-hTcRβ-PerCP (1:30)
T1 construct: Target of the anti-hCD3e antibodies on human PBMC, Jurkat cells and cells expressing human CD3e; on T cells it is part of the CD3/TCR complex; also called hCD3e; CD3e on human PBMC
Procedure: (§1) PBMC cells were collected from a human subject. After being thawed, the cells were cultured for 3-4 hours. The medium was then discarded, and the cells were resuspended in phosphate-buffered saline (PBS). The cell concentration was then adjusted to 2×10⁶/25 μl PBS.
(§2) A 96-well plate was prepared. 25 ul of cell suspension was added to each well. […] The cells and the antibodies were incubated. After centrifuge, the residues were discarded. The samples were washed again. 25 ul of PBS was then added to each well to resuspend cells.
(§3) Anti-human IgG Fc-Alexa Fluror647 (1:500) and anit-hTcRβ PerCP (1:30) were then added to each well. The cells and the antibodies were incubated and then the cells were washed again by PBS. 300 ul of PBS was then added to each well to resuspend the cells. FACS was performed.

[2] = target: T1, human CD3e (T-cell surface glycoprotein …); test: flow cytometry, human PBMC, antibody 10 µg/mL, anti-human IgG Fc-Alexa Fluor647 (1:500), anti-hTcRβ-PerCP (1:30)
Procedure: as §1
A 96-well plate was prepared. 25 ul of cell suspension was added to each well. Anti-hCD3e antibodies with different combinations of humanized 1B1 heavy chain variants and humanized 1B1 light chain variants were diluted to 20 ug/ml (2×) in PBS, and were added to the 96-well plate. The cells and the antibodies were incubated. After centrifuge, the residues were discarded. The samples were washed again. 25 ul of PBS was then added to each well to resuspend cells.
as §3

[3] = target: T2, monkey CD3e (Macaca fascicularis) on PBMC (Macaca fascicularis, UniProt Q95LI5 22-198); test: flow cytometry, Macaca fascicularis PBMC, antibody concentration not given, anti-human IgG Fc-Alexa Fluor647 (1:500), anti-hTcRβ-PerCP (1:30)
T2 construct: Target on PBMC from Macaca fascicularis; also called mfCD3e; monkey PBMC
Procedure: A 96-well plate was prepared. 25 ul of cell suspension was added to each well. Anti-hCD3 antibodies were added to the 96-well plate. The cells and the antibodies were incubated for 15 minutes at 4° C. 185 ul PBS was then added to each well. After centrifuge at 2000 rpm for 5 minutes, the medium was discarded. The samples were washed again. 25 ul of PBS was then added to resuspend cells.
Anti-human IgG Fc-Alexa Fluror647 (1:500) and anti-hTcRβ PerCP (1:30) were then added to each well. The cells and the antibodies were incubated for 15 minutes at 4° C. 185 ul PBS was then added to each well. After centrifuge, the residues were discarded. The samples were washed again. 25 ul of PBS was then added to resuspend cells. […] In contrast, anti-hTcRβ PerCP cannot bind to monkey PBMC.

[4] = target: T3, Histidine-tagged human CD3e protein (human, UniProt P07766 23-126); test: SPR (Biacore), human CD3e
T3 construct: also called hCD3e-His; not shown: His tag

[5] = target: T1, human CD3e (T-cell surface glycoprotein …); test: cell-based or functional assay
[6] = target: T1, human CD3e (T-cell surface glycoprotein …); test: flow cytometry, human PBMC, antibody 1 µg/mL, anti-human IgG Fc-Alexa Fluor647 (1:500), anti-hTcRβ-PerCP (1:30)
Procedure: as §1, §2, §3

[7] = target: T4, Cynomolgus CD3 epsilon Protein, His Tag (Acrobiosystems, Cat #CDE-05226) (cynomolgus (Macaca fascicularis), UniProt Q95LI5 22-117); test: SPR (Biacore), cynomolgus CD3e His tag
T4 construct: also called monkey CD3e; not shown: His tag
T4 sequence: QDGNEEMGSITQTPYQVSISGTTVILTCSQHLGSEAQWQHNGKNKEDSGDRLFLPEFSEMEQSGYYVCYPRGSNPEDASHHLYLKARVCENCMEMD
Procedure: The binding affinity of the anti-hCD3e antibodies with monkey CD3e (Cynomolgus CD3 epsilon Protein (SEQ ID NO: 39 AA Gln 22-Asp 117), His Tag, Acrobiosystems, Cat #CDE-05226) were also measured using surface plasmon resonance (SPR) using Biacore (Biacore, INC, Piscataway N.J.) by the methods as described in the examples.

- upper left quadrant, percent of cells AF647+ / hTcRβ-PerCP- [1]: 13.1%
- upper right quadrant, percent of cells AF647+ / hTcRβ-PerCP+ [1]: 54.1%
- upper left quadrant, percent of cells AF647+ / hTcRβ-PerCP- [2]: 8.51%
- upper right quadrant, percent of cells AF647+ / hTcRβ-PerCP+ [2]: 64.1%
- upper left quadrant, percent of cells AF647+ / hTcRβ-PerCP- [3]: 78.5%
- upper right quadrant, percent of cells AF647+ / hTcRβ-PerCP+ [3]: 18.3%
- Kd [4]: 0.809 nM
- koff [4]: 0.000653 s⁻¹
- kon [4]: 807000 M⁻¹ s⁻¹
- EC50, luciferase of Jurkat-Luc-NFAT cells; antibody from supernatant [5]: 2.4 µg/mL
- upper left quadrant, percent of cells AF647+ / hTcRβ-PerCP- [6]: 10.2%
- upper right quadrant, percent of cells AF647+ / hTcRβ-PerCP+ [6]: 64.4%
B1: 1B1-H4K1-IgG1-LALA (antibody, V domains shown)
VH: QVQLVQSGAEVVKPGASVKLSCKASGYTFTSYWMHWVRQRHGQGLEWIGNIYPDSGTTNYGEKFKTRGTLTVDTSTSTAYMELSSLRSEDTAVYYCTRDTSGQYYFDYWGQGTLVTVSS
VL: DIVMTQSPDSLAVSAGERATMNCKSSQSLLNSRTRKNYLAWYQHKPGQSPKLLIYWASTRESGVPDRFSGSGSGTDFTLTISSLQAEDVAVYYCVQSFSLRAFGGGTKVEIK
notes: Humanized; human IgG1 with LALA mutations; also called H4K1 (humanized 1B1)

- upper left quadrant, percent of cells AF647+ / hTcRβ-PerCP- [1]: 11.9%
- upper right quadrant, percent of cells AF647+ / hTcRβ-PerCP+ [1]: 54.7%
- upper left quadrant, percent of cells AF647+ / hTcRβ-PerCP- [2]: 10.7%
- upper right quadrant, percent of cells AF647+ / hTcRβ-PerCP+ [2]: 62.4%
- upper left quadrant, percent of cells AF647+ / hTcRβ-PerCP- [3]: 87.1%
- upper right quadrant, percent of cells AF647+ / hTcRβ-PerCP+ [3]: 10.1%
- Kd [4]: 1.16 nM
- koff [4]: 0.000583 s⁻¹
- kon [4]: 502000 M⁻¹ s⁻¹
- EC50, luciferase of Jurkat-Luc-NFAT cells; antibody from supernatant [5]: > 4.54 µg/mL
- upper left quadrant, percent of cells AF647+ / hTcRβ-PerCP- [6]: 10.2%
- upper right quadrant, percent of cells AF647+ / hTcRβ-PerCP+ [6]: 61.9%
B5: 1B1-H4K3-IgG1-LALA (antibody, V domains shown)
VH: B1 VH
VL: B1 VL with A19V, L84V, V109L
notes: Humanized; human IgG1 with LALA mutations; also called H4K3 (humanized 1B1)

More lines, now with the values behind:

B2: 1B1-H3K2-IgG1-LALA (antibody, V domains shown)
VH: B1 VH with V12K, G68V
VL: B1 VL with A19V
notes: Humanized; human IgG1 with LALA mutations; also called H3K2 (humanized 1B1)
- upper left quadrant, percent of cells AF647+ / hTcRβ-PerCP- [1]: 10.2%
- upper right quadrant, percent of cells AF647+ / hTcRβ-PerCP+ [1]: 57.7%
- upper left quadrant, percent of cells AF647+ / hTcRβ-PerCP- [2]: 9.23%
- upper right quadrant, percent of cells AF647+ / hTcRβ-PerCP+ [2]: 62%
- upper left quadrant, percent of cells AF647+ / hTcRβ-PerCP- [3]: 89.5%
- upper right quadrant, percent of cells AF647+ / hTcRβ-PerCP+ [3]: 7.53%
- Kd [4]: 2.96 nM
- koff [4]: 0.00062 s⁻¹
- kon [4]: 209000 M⁻¹ s⁻¹
- EC50, luciferase of Jurkat-Luc-NFAT cells; antibody from supernatant [5]: > 3.08 µg/mL
- upper left quadrant, percent of cells AF647+ / hTcRβ-PerCP- [6]: 11.4%
- upper right quadrant, percent of cells AF647+ / hTcRβ-PerCP+ [6]: 58.1%

B3: 1B1-H2K1-IgG1-LALA (antibody, V domains shown)
VH: B1 VH with V12K, R40A, H41P, G68V
VL: B1 VL
notes: Humanized; human IgG1 with LALA mutations; also called H2K1 (humanized 1B1)
- upper left quadrant, percent of cells AF647+ / hTcRβ-PerCP- [1]: 9.82%
- upper right quadrant, percent of cells AF647+ / hTcRβ-PerCP+ [1]: 59.2%
- upper left quadrant, percent of cells AF647+ / hTcRβ-PerCP- [2]: 8.53%
- upper right quadrant, percent of cells AF647+ / hTcRβ-PerCP+ [2]: 65.4%
- upper left quadrant, percent of cells AF647+ / hTcRβ-PerCP- [3]: 71%
- upper right quadrant, percent of cells AF647+ / hTcRβ-PerCP+ [3]: 25.6%
- Kd [4]: 1.49 nM
- koff [4]: 0.000862 s⁻¹
- kon [4]: 579000 M⁻¹ s⁻¹
- EC50, luciferase of Jurkat-Luc-NFAT cells; antibody from supernatant [5]: > 2.79 µg/mL
- upper left quadrant, percent of cells AF647+ / hTcRβ-PerCP- [6]: 10.8%
- upper right quadrant, percent of cells AF647+ / hTcRβ-PerCP+ [6]: 61.5%
- Kd [7]: 7.03 nM
- koff [7]: 0.000999 s⁻¹
- kon [7]: 142000 M⁻¹ s⁻¹

B4: 1B1-H3K1-IgG1-LALA (antibody, V domains shown)
VH: B1 VH with V12K, G68V
VL: B1 VL
notes: Humanized; human IgG1 with LALA mutations; also called H3K1 (humanized 1B1)
- upper left quadrant, percent of cells AF647+ / hTcRβ-PerCP- [1]: 11.8%
- upper right quadrant, percent of cells AF647+ / hTcRβ-PerCP+ [1]: 55.5%
- upper left quadrant, percent of cells AF647+ / hTcRβ-PerCP- [2]: 7.75%
- upper right quadrant, percent of cells AF647+ / hTcRβ-PerCP+ [2]: 65.2%
- upper left quadrant, percent of cells AF647+ / hTcRβ-PerCP- [3]: 78.8%
- upper right quadrant, percent of cells AF647+ / hTcRβ-PerCP+ [3]: 18.3%
- Kd [4]: 1.37 nM
- koff [4]: 0.000914 s⁻¹
- kon [4]: 665000 M⁻¹ s⁻¹
- EC50, luciferase of Jurkat-Luc-NFAT cells; antibody from supernatant [5]: > 3.06 µg/mL
- upper left quadrant, percent of cells AF647+ / hTcRβ-PerCP- [6]: 11%
- upper right quadrant, percent of cells AF647+ / hTcRβ-PerCP+ [6]: 61.2%
